Measurements from patent publication US20150259408A1 (PROTHENA BIOSCIENCES, published 2015).

Columns and labels:
[1] = molecular target: T1, human LAMA4 G domain LG1-5 displayed on 293 cells (pDisplay) (human, UniProt Q16363 830-1821, limits assumed); experiment: flow cytometry on 293 cells displaying LAMA4 fragments
T1 construct: The pDisplay vector parts (leader, tags, PDGFR transmembrane anchor) are not described; also called LAMA4-displaying 293 cells; Human LAMA4 G-domains 1-5
T1 sequence: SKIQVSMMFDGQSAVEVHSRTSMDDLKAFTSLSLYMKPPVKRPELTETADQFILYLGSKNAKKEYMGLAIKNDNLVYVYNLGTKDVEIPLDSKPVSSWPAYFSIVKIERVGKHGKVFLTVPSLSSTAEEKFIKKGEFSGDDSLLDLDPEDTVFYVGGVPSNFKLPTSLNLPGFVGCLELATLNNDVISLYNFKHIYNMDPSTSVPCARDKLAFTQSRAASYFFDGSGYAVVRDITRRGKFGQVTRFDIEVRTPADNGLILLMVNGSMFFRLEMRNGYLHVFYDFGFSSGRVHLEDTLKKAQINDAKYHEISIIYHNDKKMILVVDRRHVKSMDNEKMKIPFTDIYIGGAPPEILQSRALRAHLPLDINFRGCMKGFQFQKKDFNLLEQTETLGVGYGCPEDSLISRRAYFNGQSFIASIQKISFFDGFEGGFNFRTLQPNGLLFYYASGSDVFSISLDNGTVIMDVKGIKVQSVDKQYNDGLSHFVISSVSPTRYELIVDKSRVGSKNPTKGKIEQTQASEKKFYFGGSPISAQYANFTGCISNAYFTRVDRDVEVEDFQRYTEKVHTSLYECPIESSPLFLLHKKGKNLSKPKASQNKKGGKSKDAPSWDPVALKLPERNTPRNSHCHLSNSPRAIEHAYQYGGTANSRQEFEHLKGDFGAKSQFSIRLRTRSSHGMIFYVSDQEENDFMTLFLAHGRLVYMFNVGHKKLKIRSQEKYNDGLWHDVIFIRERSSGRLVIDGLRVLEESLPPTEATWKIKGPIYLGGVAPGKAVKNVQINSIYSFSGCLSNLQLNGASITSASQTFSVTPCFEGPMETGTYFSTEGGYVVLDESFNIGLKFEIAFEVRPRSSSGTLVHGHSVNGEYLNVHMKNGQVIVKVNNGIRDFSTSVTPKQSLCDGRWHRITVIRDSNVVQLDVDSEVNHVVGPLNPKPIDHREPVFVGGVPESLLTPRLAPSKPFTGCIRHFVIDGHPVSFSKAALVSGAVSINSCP
Method: (§1) The specific binding of the chimeric 15F7, […] H1L2, H2L1, and H2L2 antibodies to the LG4-5 modules of the G domain of LAMA4 was tested by assessing the antibodies' ability to stain LAMA4-fragment-displaying 293 cells by flow cytometry, as shown in FIG. 9. Each of the antibodies was able to specifically bind 293 cells displaying LG1-5 and LG4-5, but not LG1-3.
(§2) Human LAMA4 G-domains 1-5 and variants were cloned into pDisplay expression construct (Life Technologies) and transiently transfected into 293 cells using standard procedures. Anti-LAMA4 antibodies were incubated with cells for 30 min at 4° C. and followed by anti-mouse-650 for 30 minutes at 4° C. Cells were analyzed for anti-laminin binding by flow cytometry using standard procedures.

[2] = molecular target: T2, human LAMA4 LG1-3 fragment displayed on 293 cells (pDisplay) (human, UniProt Q16363 830-1430, limits assumed); experiment: as above
T2 sequence: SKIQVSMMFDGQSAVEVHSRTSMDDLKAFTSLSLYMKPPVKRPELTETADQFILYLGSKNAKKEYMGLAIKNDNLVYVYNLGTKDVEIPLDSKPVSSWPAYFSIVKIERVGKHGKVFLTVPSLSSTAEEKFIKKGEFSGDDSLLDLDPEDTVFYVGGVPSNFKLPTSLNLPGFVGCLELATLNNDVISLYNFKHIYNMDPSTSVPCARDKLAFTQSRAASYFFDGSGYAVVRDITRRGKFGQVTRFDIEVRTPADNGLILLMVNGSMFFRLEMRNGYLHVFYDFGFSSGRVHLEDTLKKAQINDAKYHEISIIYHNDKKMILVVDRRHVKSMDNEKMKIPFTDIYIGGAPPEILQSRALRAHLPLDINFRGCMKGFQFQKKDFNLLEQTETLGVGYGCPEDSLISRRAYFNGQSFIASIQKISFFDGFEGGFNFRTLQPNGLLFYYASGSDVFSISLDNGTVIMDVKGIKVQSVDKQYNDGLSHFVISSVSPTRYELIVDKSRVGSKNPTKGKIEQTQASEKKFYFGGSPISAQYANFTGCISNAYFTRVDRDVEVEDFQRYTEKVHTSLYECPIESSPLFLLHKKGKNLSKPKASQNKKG
Method: as §1, §2

[3] = molecular target: T3, LAMA4 / purified His-LAMA4 (species not stated); experiment: SPR (Biacore), full kinetic analysis; species of LAMA4 not stated
T3 chain: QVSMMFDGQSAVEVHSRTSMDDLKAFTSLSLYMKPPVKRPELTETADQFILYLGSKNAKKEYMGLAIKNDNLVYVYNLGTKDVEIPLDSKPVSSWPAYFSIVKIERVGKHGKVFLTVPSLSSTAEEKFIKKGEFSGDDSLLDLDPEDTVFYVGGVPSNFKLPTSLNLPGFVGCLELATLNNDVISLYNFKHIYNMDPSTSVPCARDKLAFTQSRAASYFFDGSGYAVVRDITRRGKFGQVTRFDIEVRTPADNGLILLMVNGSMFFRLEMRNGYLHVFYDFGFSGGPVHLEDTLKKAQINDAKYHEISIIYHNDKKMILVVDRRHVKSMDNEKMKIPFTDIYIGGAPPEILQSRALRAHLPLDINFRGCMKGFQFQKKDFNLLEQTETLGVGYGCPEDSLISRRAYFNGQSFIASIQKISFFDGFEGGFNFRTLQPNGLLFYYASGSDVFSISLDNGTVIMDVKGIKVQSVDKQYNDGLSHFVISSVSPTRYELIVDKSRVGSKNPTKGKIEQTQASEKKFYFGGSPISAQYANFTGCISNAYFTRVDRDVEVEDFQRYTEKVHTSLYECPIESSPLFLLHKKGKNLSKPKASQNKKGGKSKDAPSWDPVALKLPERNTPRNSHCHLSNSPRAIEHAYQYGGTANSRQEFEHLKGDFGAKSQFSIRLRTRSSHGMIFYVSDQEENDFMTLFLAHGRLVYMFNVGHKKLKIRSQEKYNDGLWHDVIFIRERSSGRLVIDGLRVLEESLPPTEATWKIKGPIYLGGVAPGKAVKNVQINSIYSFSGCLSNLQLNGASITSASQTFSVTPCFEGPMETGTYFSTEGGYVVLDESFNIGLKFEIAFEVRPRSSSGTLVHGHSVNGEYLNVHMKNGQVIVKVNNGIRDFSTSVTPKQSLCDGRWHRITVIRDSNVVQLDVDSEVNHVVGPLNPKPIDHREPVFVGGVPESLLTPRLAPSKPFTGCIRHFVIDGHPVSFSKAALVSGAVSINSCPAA

[4] = molecular target: T4, human LAMA4 LG4-5 fragment displayed on 293 cells (pDisplay) (human, UniProt Q16363 1453-1821, limits assumed); experiment: flow cytometry, serial dilution on 293 cells displaying LG4-5
T4 sequence: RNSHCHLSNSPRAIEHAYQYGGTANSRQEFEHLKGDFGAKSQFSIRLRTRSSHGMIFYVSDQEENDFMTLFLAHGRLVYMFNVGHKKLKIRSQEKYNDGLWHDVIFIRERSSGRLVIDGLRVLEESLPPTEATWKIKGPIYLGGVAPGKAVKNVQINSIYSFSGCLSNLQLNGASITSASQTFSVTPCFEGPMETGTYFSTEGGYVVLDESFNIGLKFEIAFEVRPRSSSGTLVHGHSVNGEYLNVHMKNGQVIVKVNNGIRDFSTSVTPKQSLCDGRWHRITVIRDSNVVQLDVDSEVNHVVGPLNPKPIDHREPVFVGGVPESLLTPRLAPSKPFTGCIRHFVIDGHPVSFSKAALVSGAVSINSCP
Method: Chimeric 15F7, H1L1, H1L2, H2L1, H2L2, and buffer alone were tested for their ability to bind to LAMA4-fragment-displaying cells. To test LAMA4 binding capacity, serially diluted antibodies were pre-incubated with human 293 cells displaying LG4-5, followed by anti-human-650 secondary antibody incubation as described in the Materials and Methods. Fluorescent signal was assessed via flow cytometric analyses and plotted as mean fluorescence intensity (MFI) as shown in FIG. 8.
as §2

B1: humanized 15F7 variant H1L1 (Hu15F7VHv1/Hu15F7VLv1) (antibody, V domains shown)
VH: EVQLQQSGAEVKKPGSSVKLSCKASGYTFTSYGLSWVKQRAGQGLEWIGEIFPRSGNTYYNEKFKGKATLTADKSSSTAYMELRSLRSEDTAVYFCARGVRSPGAMDYWGQGTLVTVSS
VL: DIQMTQSSSSLSASVGDRVTITCKASEDIYNRLAWYQQKPGNAPRLLISGATSLETGVPSRFSGSGSGKDYTLTISSLQTEDFATYYCQQYWSIPYTFGGGTKLEIKR
notes: They are human, since it was captured by a goat anti-human Fc sensor; also called VHv1/VLv1
- binding result [1]: binds
- binding result [2]: no binding
- Kd [3]: 0.12 nM
- koff [3]: 0.000183 s⁻¹
- kon [3]: 1.5e+06 M⁻¹ s⁻¹
- binding result [4]: binds

B2: humanized 15F7 variant H1L2 (Hu15F7VHv1/Hu15F7VLv2) (antibody, V domains shown)
VH: EVQLQQSGAEVKKPGSSVKLSCKASGYTFTSYGLSWVKQRAGQGLEWIGEIFPRSGNTYYNEKFKGKATLTADKSSSTAYMELRSLRSEDTAVYFCARGVRSPGAMDYWGQGTLVTVSS
VL: DIQMTQSPSSLSASVGDRVTITCKASEDIYNRLAWYQQKPGNAPKLLISGATSLETGVPSRFSGSGSGKDFTLTISSLQPEDFATYYCQQYWSIPYTFGGGTKVEIKR
notes: also called VHv1/VLv2
- binding result [1]: binds
- binding result [2]: no binding
- binding result [4]: binds

B3: humanized 15F7 variant H2L1 (Hu15F7VHv2/Hu15F7VLv1) (antibody, V domains shown)
VH: EVQLQQSGAEVKKPGSSVKLSCKASGYTFTSYGLSWVKQRPGQGLEWIGEIFPRSGNTYYNEKFKGKATITADKSSSTAYMELRSLRSEDTAVYFCARGVRSPGAMDYWGQGTLVTVSS
VL: DIQMTQSSSSLSASVGDRVTITCKASEDIYNRLAWYQQKPGNAPRLLISGATSLETGVPSRFSGSGSGKDYTLTISSLQTEDFATYYCQQYWSIPYTFGGGTKLEIKR
notes: also called VHv2/VLv1
- binding result [1]: binds
- binding result [2]: no binding
- Kd [3]: 0.13 nM
- koff [3]: 0.000205 s⁻¹
- kon [3]: 1.56e+06 M⁻¹ s⁻¹
- binding result [4]: binds

B4: humanized 15F7 variant H2L2 (Hu15F7VHv2/Hu15F7VLv2) (antibody, V domains shown)
VH: EVQLQQSGAEVKKPGSSVKLSCKASGYTFTSYGLSWVKQRPGQGLEWIGEIFPRSGNTYYNEKFKGKATITADKSSSTAYMELRSLRSEDTAVYFCARGVRSPGAMDYWGQGTLVTVSS
VL: DIQMTQSPSSLSASVGDRVTITCKASEDIYNRLAWYQQKPGNAPKLLISGATSLETGVPSRFSGSGSGKDFTLTISSLQPEDFATYYCQQYWSIPYTFGGGTKVEIKR
notes: also called VHv2/VLv2
- binding result [1]: binds
- binding result [2]: no binding
- binding result [4]: binds

B5: chimeric 15F7 (antibody, V domains shown)
VH: QVQLQQSGTELARPGAAVKLSCKASGYTFTSYGLSWVKQRAGQGLEWIGEIFPRSGNTYYNEKFKGKATLTADKSSSTAYMELRSLTSEDSAVYFCARGVRSPGAMDYWGQGTSVTVSS
VL: DIQMTQSSSSFSVSLGDRVTITCKASEDIYNRLAWYQQKPGNAPRLLISGATSLETGVPSRFSGSGSGKDYTLSITSLQTEDVATYYCQQYWSIPYTFGGGTNLEIKR
- binding result [2]: no binding
- Kd [3]: 0.1 nM
- koff [3]: 0.000151 s⁻¹
- kon [3]: 1.5e+06 M⁻¹ s⁻¹
